This is an account of results in paper PMC8866397.

The test system of one series is HMGN1. Nature of the series: two-color EMSA. To be noted: value stated for HMGNs together, EMSA: 100 nM nucleosomes in 10 µl 2x TBE (45 mM Tris-borate pH 8.3, 1 mM EDTA), 0.15 mg/ml BSA, 5% Ficoll, 10 min at 4 °C, native 5% PAGE in 2x TBE ….
The subject of the next series is HMGN2. Nature of the series: two-color EMSA. To be noted: value stated for HMGNs together, EMSA: 100 nM nucleosomes in 10 µl 2x TBE (45 mM Tris-borate pH 8.3, 1 mM EDTA), 0.15 mg/ml BSA, 5% Ficoll, 10 min at 4 °C, native 5% PAGE in 2x TBE ….
[1] abbreviates: no preference over rMN, histone H3K27me3, scale: ratio of shifted rMNH3K27me3 to rMN fluorescence.
The mark [2] stands for this setting: low HMGN:nucleosome ratio, histone H3K27ac, scale: ratio of shifted rMNH3K27ac to rMN fluorescence.

With rMNH3K27me3, the binding signal with HMGN1 (setting [1]) and in the series on HMGN2 (setting [1]) was 1 each time.
For the substance rMNH3K27ac, the binding signal with HMGN1 (setting [2]) and with HMGN2 (setting [2]) was 1.7 throughout.
